B1: GNB5 (parent)
chain: YYPSGDAFASGSDDATCRLYDLRA
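Also: lentivirally expressed fusions sorted by FACS into six bins by GFP to DsRed ratio, PSI derived from sequencing read proportions per bin multiplied by bin number.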

In this data set the parent is B1. The data set can be described thus: protein stability index of a GFP-peptide fusion (GPS, HEK-293T) (PSI 1-6); higher = more stable. Particulars: c terminus: a fixed tail appended.
Take YYPSLDAFASGSDDATCRLYDLRA: the protein stability index is 2.76.
Take YYPSPDAFASGSDDATCRLYDLRA: the protein stability index came to 2.69.
Then YYPSQDAFASGSDDATCRLYDLRA, with 2.7.
Then YYPSCDAFASGSDDATCRLYDLRA, with 3.39; and YYPSTDAFASGSDDATCRLYDLRA, with 3.56; and YYPSFDAFASGSDDATCRLYDLRA, with 2.61.
Then YYPSNDAFASGSDDATCRLYDLRA, with 3.88; and YYPSHDAFASGSDDATCRLYDLRA, with 2.81; and YYPSEDAFASGSDDATCRLYDLRA, with 3.96.
Take YYPSDDAFASGSDDATCRLYDLRA: the protein stability index worked out at 3.77.
The value for YYPSVDAFASGSDDATCRLYDLRA was 3.17.
With YYPSIDAFASGSDDATCRLYDLRA, the protein stability index came out at 2.8.
For the variant YYPSSDAFASGSDDATCRLYDLRA, the protein stability index amounted to 3.09.
For the variant YYPSRDAFASGSDDATCRLYDLRA, the protein stability index stood at 3.12.
With YYPSKDAFASGSDDATCRLYDLRA, the protein stability index came out at 2.89.
Turning to YYPSYDAFASGSDDATCRLYDLRA, the protein stability index came to 2.4.
Then YYPSMDAFASGSDDATCRLYDLRA, with 2.88; and YYPSADAFASGSDDATCRLYDLRA, with 2.95; and YYPSGDWFASGSDDATCRLYDLRA, with 1.66.
Turning to YYPSGDRFASGSDDATCRLYDLRA, the protein stability index worked out at 3.1.
On to YYPSGDCFASGSDDATCRLYDLRA, for which the protein stability index worked out at 2.31.
Consider YYPSGDEFASGSDDATCRLYDLRA, for which the protein stability index was determined as 3.1.
For the variant YYPSGDDFASGSDDATCRLYDLRA, the protein stability index came to 3.83.
The value for YYPSGDKFASGSDDATCRLYDLRA was 2.52.
For the variant YYPSGDLFASGSDDATCRLYDLRA, the protein stability index worked out at 2.2.
Take YYPSGDMFASGSDDATCRLYDLRA: the protein stability index was found to be 2.47.
For YYPSGDHFASGSDDATCRLYDLRA, the protein stability index was determined as 2.58.
As for YYPSGDFFASGSDDATCRLYDLRA, the protein stability index was found to be 1.77.
With YYPSGDQFASGSDDATCRLYDLRA, the protein stability index worked out at 2.65.
The value for YYPSGDNFASGSDDATCRLYDLRA was 2.73; that for YYPSGDGFASGSDDATCRLYDLRA was 3.47.
The value for YYPSGDIFASGSDDATCRLYDLRA was 2.31; that for YYPSGDTFASGSDDATCRLYDLRA was 2.71.
With YYPSGDSFASGSDDATCRLYDLRA, the protein stability index came to 2.39.
YYPSGDVFASGSDDATCRLYDLRA: the protein stability index is 2.23.
Take YYPSGDYFASGSDDATCRLYDLRA: the protein stability index was 2.06.
In the case of YYPSGDPFASGSDDATCRLYDLRA, the protein stability index was found to be 2.5.
YYPSGDAFASGRDDATCRLYDLRA: the protein stability index is 2.17.
For the variant YYPSGDAFASGPDDATCRLYDLRA, the protein stability index amounted to 2.17.
Then YYPSGDAFASGMDDATCRLYDLRA, with 2.13.
As for YYPSGDAFASGIDDATCRLYDLRA, the protein stability index was determined as 2.24.
With YYPSGDAFASGKDDATCRLYDLRA, the protein stability index was 2.21.
YYPSGDAFASGTDDATCRLYDLRA: the protein stability index was 2.79.
Take YYPSGDAFASGFDDATCRLYDLRA: the protein stability index came out at 2.41.
Take YYPSGDAFASGYDDATCRLYDLRA: the protein stability index stood at 2.98.
With YYPSGDAFASGADDATCRLYDLRA, the protein stability index came to 2.76.
With YYPSGDAFASGQDDATCRLYDLRA, the protein stability index turned out to be 2.08.
Then YYPSGDAFASGEDDATCRLYDLRA, with 2.89; and YYPSGDAFASGLDDATCRLYDLRA, with 2.16.
On to YYPSGDAFASGVDDATCRLYDLRA, for which the protein stability index came to 2.04.
Then YYPSGDAFASGHDDATCRLYDLRA, with 2.92; and YYPSGDAFASGNDDATCRLYDLRA, with 2.41.
For YYPSGDAFASGGDDATCRLYDLRA, the protein stability index came out at 1.74.
For YYPSGDAFASGWDDATCRLYDLRA, the protein stability index turned out to be 2.74.
Turning to YYPSGDAFASGCDDATCRLYDLRA, the protein stability index came to 2.98.
For YYPSGDAFASGDDDATCRLYDLRA, the protein stability index turned out to be 3.23.
As for YYPSGDAFAMGSDDATCRLYDLRA, the protein stability index stood at 2.16.
On to YYPSGDAFAEGSDDATCRLYDLRA, for which the protein stability index worked out at 3.
On to YYPSGDAFAQGSDDATCRLYDLRA, for which the protein stability index was determined as 2.54.
The value for YYPSGDAFADGSDDATCRLYDLRA was 3.28; that for YYPSGDAFARGSDDATCRLYDLRA was 2.1; that for YYPSGDAFAVGSDDATCRLYDLRA was 2.18.
Then YYPSGDAFAPGSDDATCRLYDLRA, with 2.46; and YYPSGDAFATGSDDATCRLYDLRA, with 2.68; and YYPSGDAFAFGSDDATCRLYDLRA, with 2.03.
Regarding YYPSGDAFAKGSDDATCRLYDLRA, the protein stability index was 2.25.
On to YYPSGDAFALGSDDATCRLYDLRA, for which the protein stability index was 2.05.
The value for YYPSGDAFAGGSDDATCRLYDLRA was 2.36.
YYPSGDAFAWGSDDATCRLYDLRA: the protein stability index was determined as 2.23.
The value for YYPSGDAFAIGSDDATCRLYDLRA was 1.79; that for YYPSGDAFAYGSDDATCRLYDLRA was 2.4.
YYPSGDAFAAGSDDATCRLYDLRA: the protein stability index turned out to be 2.25.
Then YYPSGDAFACGSDDATCRLYDLRA, with 2.01.
For the variant YYPSGDAFANGSDDATCRLYDLRA, the protein stability index stood at 2.64.
For the variant YYPSGDAFAHGSDDATCRLYDLRA, the protein stability index was found to be 2.56.
YYPSGDATASGSDDATCRLYDLRA: the protein stability index was 4.02.
Regarding YYPSGDAIASGSDDATCRLYDLRA, the protein stability index was 3.42.
On to YYPSGDAQASGSDDATCRLYDLRA, for which the protein stability index is 3.71.
Then YYPSGDAPASGSDDATCRLYDLRA, with 4.12; and YYPSGDAEASGSDDATCRLYDLRA, with 4.5; and YYPSGDAAASGSDDATCRLYDLRA, with 4.18.
On to YYPSGDARASGSDDATCRLYDLRA, for which the protein stability index came to 3.76.
With YYPSGDADASGSDDATCRLYDLRA, the protein stability index came out at 4.4.
For the variant YYPSGDALASGSDDATCRLYDLRA, the protein stability index worked out at 3.6.
Consider YYPSGDAVASGSDDATCRLYDLRA, for which the protein stability index turned out to be 4.07.
As to YYPSGDAKASGSDDATCRLYDLRA, the protein stability index amounted to 4.19.
The value for YYPSGDACASGSDDATCRLYDLRA was 3.87.
Consider YYPSGDAHASGSDDATCRLYDLRA, for which the protein stability index worked out at 4.09.
Then YYPSGDAYASGSDDATCRLYDLRA, with 2.61.
The value for YYPSGDANASGSDDATCRLYDLRA was 4.23; that for YYPSGDASASGSDDATCRLYDLRA was 4.11.
Take YYPSGDAWASGSDDATCRLYDLRA: the protein stability index stood at 2.62.
For the variant YYPSGDAGASGSDDATCRLYDLRA, the protein stability index was 4.09.
The value for YYPSGDAMASGSDDATCRLYDLRA was 3.53.

These data come from the supplement of paper PMC10567573.
